Reference: patent US20220298218A1 (ANTAG THERAPEUTICS, published 2022)
*1 amine or outer side, *2 acyl side, *3 side chain or, on linkers, in order; H or OH if unused. Where no end group is shown, it is not given here. Side-chain parts run from the residue outwards. The star is where a group is joined. C18 diacid = O=C(O)CCCCCCCCCCCCCCCCC(=O)*; C16 diacid = O=C(O)CCCCCCCCCCCCCCC(=O)*; γGlu = O=C(O)[C@H](CCC(=O)[*:2])N[*:1]; AEEA = NCCOCCOCC(=O)O

T1: human GIP receptor (human, UniProt P48546 22-466)
T1 sequence (looked up): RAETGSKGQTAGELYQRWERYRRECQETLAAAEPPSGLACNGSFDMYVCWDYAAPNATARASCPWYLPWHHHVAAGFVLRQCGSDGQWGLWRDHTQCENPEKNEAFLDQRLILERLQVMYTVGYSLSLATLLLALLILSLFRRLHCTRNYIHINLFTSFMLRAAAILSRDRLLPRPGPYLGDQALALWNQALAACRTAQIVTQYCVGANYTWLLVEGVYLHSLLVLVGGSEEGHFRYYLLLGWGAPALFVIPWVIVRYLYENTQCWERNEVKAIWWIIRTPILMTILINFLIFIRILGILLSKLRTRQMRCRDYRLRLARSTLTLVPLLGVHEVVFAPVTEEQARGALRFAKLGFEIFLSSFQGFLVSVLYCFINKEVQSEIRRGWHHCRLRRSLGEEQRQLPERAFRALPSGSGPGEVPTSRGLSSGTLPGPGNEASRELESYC

B1: AT437 (peptide)
peptide: SGTFISDYSIAMDKIK([AEEA-AEEA-γGlu-C18 diacid])QQDFVNWLLAQKGPSSGAPPPS-OH
modifications: N-terminus assumed
SMILES: CC[C@H](C)[C@H](NC(=O)[C@H](CO)NC(=O)[C@H](Cc1ccc(O)cc1)NC(=O)[C@H](CC(=O)O)NC(=O)[C@H](CO)NC(=O)[C@@H](NC(=O)[C@H](Cc1ccccc1)NC(=O)[C@@H](NC(=O)CNC(=O)[C@@H](N)CO)[C@@H](C)O)[C@@H](C)CC)C(=O)N[C@@H](C)C(=O)N[C@@H](CCSC)C(=O)N[C@@H](CC(=O)O)C(=O)N[C@@H](CCCCN)C(=O)N[C@H](C(=O)N[C@@H](CCCCNC(=O)COCCOCCNC(=O)COCCOCCNC(=O)CC[C@H](NC(=O)CCCCCCCCCCCCCCCCC(=O)O)C(=O)O)C(=O)N[C@@H](CCC(N)=O)C(=O)N[C@@H](CCC(N)=O)C(=O)N[C@@H](CC(=O)O)C(=O)N[C@@H](Cc1ccccc1)C(=O)N[C@H](C(=O)N[C@@H](CC(N)=O)C(=O)N[C@@H](Cc1c[nH]c2ccccc12)C(=O)N[C@@H](CC(C)C)C(=O)N[C@@H](CC(C)C)C(=O)N[C@@H](C)C(=O)N[C@@H](CCC(N)=O)C(=O)N[C@@H](CCCCN)C(=O)NCC(=O)N1CCC[C@H]1C(=O)N[C@@H](CO)C(=O)N[C@@H](CO)C(=O)NCC(=O)N[C@@H](C)C(=O)N1CCC[C@H]1C(=O)N1CCC[C@H]1C(=O)N1CCC[C@H]1C(=O)N[C@@H](CO)C(=O)O)C(C)C)[C@@H](C)CC
B2: AT431 (peptide)
peptide: EGTFISDYSIAMDKIK([AEEA-AEEA-γGlu-C16 diacid])QQDFVNWLLAQKGPSSGAPPPS-OH
modifications: N-terminus assumed
SMILES: CC[C@H](C)[C@H](NC(=O)[C@H](CO)NC(=O)[C@H](Cc1ccc(O)cc1)NC(=O)[C@H](CC(=O)O)NC(=O)[C@H](CO)NC(=O)[C@@H](NC(=O)[C@H](Cc1ccccc1)NC(=O)[C@@H](NC(=O)CNC(=O)[C@@H](N)CCC(=O)O)[C@@H](C)O)[C@@H](C)CC)C(=O)N[C@@H](C)C(=O)N[C@@H](CCSC)C(=O)N[C@@H](CC(=O)O)C(=O)N[C@@H](CCCCN)C(=O)N[C@H](C(=O)N[C@@H](CCCCNC(=O)COCCOCCNC(=O)COCCOCCNC(=O)CC[C@H](NC(=O)CCCCCCCCCCCCCCC(=O)O)C(=O)O)C(=O)N[C@@H](CCC(N)=O)C(=O)N[C@@H](CCC(N)=O)C(=O)N[C@@H](CC(=O)O)C(=O)N[C@@H](Cc1ccccc1)C(=O)N[C@H](C(=O)N[C@@H](CC(N)=O)C(=O)N[C@@H](Cc1c[nH]c2ccccc12)C(=O)N[C@@H](CC(C)C)C(=O)N[C@@H](CC(C)C)C(=O)N[C@@H](C)C(=O)N[C@@H](CCC(N)=O)C(=O)N[C@@H](CCCCN)C(=O)NCC(=O)N1CCC[C@H]1C(=O)N[C@@H](CO)C(=O)N[C@@H](CO)C(=O)NCC(=O)N[C@@H](C)C(=O)N1CCC[C@H]1C(=O)N1CCC[C@H]1C(=O)N1CCC[C@H]1C(=O)N[C@@H](CO)C(=O)O)C(C)C)[C@@H](C)CC
B3: AT439 (peptide)
peptide: SGTFISDYSIAMDRIK([AEEA-AEEA-γGlu-C16 diacid])QQDFVNWLLAQRGPSSGAPPPS-OH
modifications: N-terminus assumed
SMILES: CC[C@H](C)[C@H](NC(=O)[C@H](CO)NC(=O)[C@H](Cc1ccc(O)cc1)NC(=O)[C@H](CC(=O)O)NC(=O)[C@H](CO)NC(=O)[C@@H](NC(=O)[C@H](Cc1ccccc1)NC(=O)[C@@H](NC(=O)CNC(=O)[C@@H](N)CO)[C@@H](C)O)[C@@H](C)CC)C(=O)N[C@@H](C)C(=O)N[C@@H](CCSC)C(=O)N[C@@H](CC(=O)O)C(=O)N[C@@H](CCCNC(=N)N)C(=O)N[C@H](C(=O)N[C@@H](CCCCNC(=O)COCCOCCNC(=O)COCCOCCNC(=O)CC[C@H](NC(=O)CCCCCCCCCCCCCCC(=O)O)C(=O)O)C(=O)N[C@@H](CCC(N)=O)C(=O)N[C@@H](CCC(N)=O)C(=O)N[C@@H](CC(=O)O)C(=O)N[C@@H](Cc1ccccc1)C(=O)N[C@H](C(=O)N[C@@H](CC(N)=O)C(=O)N[C@@H](Cc1c[nH]c2ccccc12)C(=O)N[C@@H](CC(C)C)C(=O)N[C@@H](CC(C)C)C(=O)N[C@@H](C)C(=O)N[C@@H](CCC(N)=O)C(=O)N[C@@H](CCCNC(=N)N)C(=O)NCC(=O)N1CCC[C@H]1C(=O)N[C@@H](CO)C(=O)N[C@@H](CO)C(=O)NCC(=O)N[C@@H](C)C(=O)N1CCC[C@H]1C(=O)N1CCC[C@H]1C(=O)N1CCC[C@H]1C(=O)N[C@@H](CO)C(=O)O)C(C)C)[C@@H](C)CC
B4: AT434 (peptide)
peptide: EGTFISDYSIAMDKIK([AEEA-AEEA-AEEA-γGlu-C18 diacid])QQDFVNWLLAQKGPSSGAPPPS-OH
modifications: N-terminus assumed
SMILES: CC[C@H](C)[C@H](NC(=O)[C@H](CO)NC(=O)[C@H](Cc1ccc(O)cc1)NC(=O)[C@H](CC(=O)O)NC(=O)[C@H](CO)NC(=O)[C@@H](NC(=O)[C@H](Cc1ccccc1)NC(=O)[C@@H](NC(=O)CNC(=O)[C@@H](N)CCC(=O)O)[C@@H](C)O)[C@@H](C)CC)C(=O)N[C@@H](C)C(=O)N[C@@H](CCSC)C(=O)N[C@@H](CC(=O)O)C(=O)N[C@@H](CCCCN)C(=O)N[C@H](C(=O)N[C@@H](CCCCNC(=O)COCCOCCNC(=O)COCCOCCNC(=O)COCCOCCNC(=O)CC[C@H](NC(=O)CCCCCCCCCCCCCCCCC(=O)O)C(=O)O)C(=O)N[C@@H](CCC(N)=O)C(=O)N[C@@H](CCC(N)=O)C(=O)N[C@@H](CC(=O)O)C(=O)N[C@@H](Cc1ccccc1)C(=O)N[C@H](C(=O)N[C@@H](CC(N)=O)C(=O)N[C@@H](Cc1c[nH]c2ccccc12)C(=O)N[C@@H](CC(C)C)C(=O)N[C@@H](CC(C)C)C(=O)N[C@@H](C)C(=O)N[C@@H](CCC(N)=O)C(=O)N[C@@H](CCCCN)C(=O)NCC(=O)N1CCC[C@H]1C(=O)N[C@@H](CO)C(=O)N[C@@H](CO)C(=O)NCC(=O)N[C@@H](C)C(=O)N1CCC[C@H]1C(=O)N1CCC[C@H]1C(=O)N1CCC[C@H]1C(=O)N[C@@H](CO)C(=O)O)C(C)C)[C@@H](C)CC
B5: AT435 (peptide)
peptide: SGTFISDYSIAMDKIK([AEEA-AEEA-γGlu-C16 diacid])QQDFVNWLLAQKGPSSGAPPPS-OH
modifications: N-terminus assumed
SMILES: CC[C@H](C)[C@H](NC(=O)[C@H](CO)NC(=O)[C@H](Cc1ccc(O)cc1)NC(=O)[C@H](CC(=O)O)NC(=O)[C@H](CO)NC(=O)[C@@H](NC(=O)[C@H](Cc1ccccc1)NC(=O)[C@@H](NC(=O)CNC(=O)[C@@H](N)CO)[C@@H](C)O)[C@@H](C)CC)C(=O)N[C@@H](C)C(=O)N[C@@H](CCSC)C(=O)N[C@@H](CC(=O)O)C(=O)N[C@@H](CCCCN)C(=O)N[C@H](C(=O)N[C@@H](CCCCNC(=O)COCCOCCNC(=O)COCCOCCNC(=O)CC[C@H](NC(=O)CCCCCCCCCCCCCCC(=O)O)C(=O)O)C(=O)N[C@@H](CCC(N)=O)C(=O)N[C@@H](CCC(N)=O)C(=O)N[C@@H](CC(=O)O)C(=O)N[C@@H](Cc1ccccc1)C(=O)N[C@H](C(=O)N[C@@H](CC(N)=O)C(=O)N[C@@H](Cc1c[nH]c2ccccc12)C(=O)N[C@@H](CC(C)C)C(=O)N[C@@H](CC(C)C)C(=O)N[C@@H](C)C(=O)N[C@@H](CCC(N)=O)C(=O)N[C@@H](CCCCN)C(=O)NCC(=O)N1CCC[C@H]1C(=O)N[C@@H](CO)C(=O)N[C@@H](CO)C(=O)NCC(=O)N[C@@H](C)C(=O)N1CCC[C@H]1C(=O)N1CCC[C@H]1C(=O)N1CCC[C@H]1C(=O)N[C@@H](CO)C(=O)O)C(C)C)[C@@H](C)CC

Each binder was assayed against T1, human GIP receptor (assay: cell-based or functional assay).
In the case of B1, the “cAMP agonism % Emax” value is reported as 0%, the “cAMP antagonism” value is reported as 35.5 nM and the “cAMP antagonism % inhib” value is reported as 83%. The “cAMP antagonism pIC50” value was 7.5. In the case of B2, the “cAMP agonism % Emax” value is reported as 0%, the “cAMP antagonism” value is reported as 34.2 nM and the “cAMP antagonism % inhib” value is reported as 77%. For the same binder, the “cAMP antagonism pIC50” value was 7.5. For B3, the “cAMP agonism % Emax” value was 0%, the “cAMP antagonism” value was 14.7 nM and the “cAMP antagonism % inhib” value was 93%. The “cAMP antagonism pIC50” value was 7.8. For B4, the “cAMP antagonism” value was 35.5 nM, the “cAMP antagonism % inhib” value was 95% and the “cAMP antagonism pIC50” value was 7.5. EGTFISDYSIAMDKIK([AEEA-AEEA-γGlu-C18 diacid])QQDFVNWLLAQKGPSSGAPPPS [AT433] was tested, and the “cAMP agonism % Emax” value was 0%, the “cAMP antagonism” value was 7.94 nM and the “cAMP antagonism % inhib” value was 89%. For the same binder, the “cAMP antagonism pIC50” value was 8.1. B5 was tested, and the “cAMP antagonism” value was 79.4 nM, the “cAMP antagonism % inhib” value was 84% and the “cAMP antagonism pIC50” value was 7.1.

Target: T1, human GIP receptor
Assay: cell-based or functional assay
Remark: another data set of the same source
With B1 the “cAMP antagonism” value was 8 nM, the “cAMP antagonism % inhib” value was 100% and the cAMP antagonism log was -8.1 log M. In the case of B2, the “cAMP antagonism” value is reported as 7 nM, the “cAMP antagonism % inhib” value is reported as 75% and the cAMP antagonism log is reported as -8.1 log M. In the case of B3, the “cAMP antagonism” value is reported as 9 nM, the “cAMP antagonism % inhib” value is reported as 100% and the cAMP antagonism log is reported as -8 log M. With B4 the “cAMP antagonism” value was 14 nM, the “cAMP antagonism % inhib” value was 100% and the cAMP antagonism log was -7.9 log M. EGTFISDYSIAMDKIK([AEEA-AEEA-γGlu-C18 diacid])QQDFVNWLLAQKGPSSGAPPPS [AT433] was tested, and the “cAMP antagonism” value was 62 nM, the “cAMP antagonism % inhib” value was 100% and the cAMP antagonism log was -7.2 log M. For B5, the “cAMP antagonism” value was 75 nM, the “cAMP antagonism % inhib” value was 100% and the cAMP antagonism log was -7.1 log M.
